US20040014194A1, “Beta-secretase crystals and methods for preparing and using the same” (Schering Corporation, priority 2002, published 2004)

B1: mature BACE: glycosylated, soluble fragment of mature human BACE, autoprocessed from proBACE at pH 4.0 (protein, listed as Homo sapiens)
chain: ETDEEPEEPGRRGSFVEMVDNLRGKSGQGYYVEMTVGSPPQTLNILVDTGSSNFAVGAAPHPFLHRYYQRQLSSTYRDLRKGVYVPYTQGKWEGELGTDLVSIPHGPNVTVRANIAAITESDKFFINGSNWEGILGLAYAEIARPDDSLEPFFDSLVKQTHVPNLFSLQLCGAGFPLNQSEVLASVGGSMIIGGIDHSLYTGSLWYTPIRREWYYEVIIVRVEINGQDLKMDCKEYNYDKSIVDSGTTNLRLPKKVFEAAVKSIKAASSTEKFPDGFWLGEQLVCWQAGTTPWNIFPVISLYLMGEVTNQSFRITILPQQYLRPVEDVATSQDDCYKFAISQSSTGTVMGAVIMEGFYVVFDRARKRIGFAVSACHVHDEFRTAAVEGPFVTLDMEDCGYNIPQTDESTLE
modifications: glycosylated
notes: glycosylated, soluble fragment of mature human BACE, autoprocessed from proBACE at pH 4.0
B2: proBACE: immature, soluble human β-secretase with amino-terminal propeptide, expressed in Sf9 insect cells (protein, listed as Homo sapiens)
chain: TQHGIRLPLRSGLGGAPLGLRLPRETDEEPEEPGRRGSFVEMVDNLRGKSGQGYYVEMTVGSPPQTLNILVDTGSSNFAVGAAPHPFLHRYYQRQLSSTYRDLRKGVYVPYTQGKWEGELGTDLVSIPHGPNVTVRANIAAITESDKFFINGSNWEGILGLAYAEIARPDDSLEPFFDSLVKQTHVPNLFSLQLCGAGFPLNQSEVLASVGGSMIIGGIDHSLYTGSLWYTPIRREWYYEVIIVRVEINGQDLKMDCKEYNYDKSIVDSGTTNLRLPKKVFEAAVKSIKAASSTEKFPDGFWLGEQLVCWQAGTTPWNIFPVISLYLMGEVTNQSFRITILPQQYLRPVEDVATSQDDCYKFAISQSSTGTVMGAVIMEGFYVVFDRARKRIGFAVSACHVHDEFRTAAVEGPFVTLDMEDCGYNIPQTDESTLE

Biological target: T1, β-secretase purified from Sf-9 cells (Homo sapiens, UniProt P56817)
T1 construct: made in house; host or cells: Sf9 insect cells, baculovirus (Bac-to-Bac), secreted into the medium
Assay: HPLC assay of β-secretase enzymatic activity with a peptide substrate derived from "Swedish" amyloid protein peptide
Format: biochemical
Details: proBACE compared with mature BACE
Experimental: To assess the functionality of β-secretase purified from Sf-9 cells, an HPLC assay was developed using a peptide substrate derived from the sequence of “Swedish” amyloid protein peptide (Dreyer et al., (1994) Eur J. Biochem 224: 265-271). In these assays, ProBACE (SEQ ID NO: 2) and mature BACE (SEQ ID NO: 1) were tested.

Row | Molecule | enzymatic activity with substrate Biotin-KSEVNL*DAEFRK-Fluorescein
1 | B1 | equivalent
2 | B2 | equivalent
